According to patent US9994628B2, “Peptides and combination of peptides for use in immunotherapy against various tumors” (IMMATICS BIOTECHNOLOGIES GMBH, priority 2015, dated 2018):

The substances below were run against HLA-A*02:01 (Homo sapiens, UniProt P04439, D140Y/D185E/D98H/E176V/E277Q/G131W/G231S/I119V/I121R/I166T/I218V/L300P/L318F/N151K/N90K/P208A/P217A/Q86G/Q94H/R138H/R169H/T345S) (assay: MHC binding assay: UV-ligand exchange and β2m ELISA (peptide exchange yield, Table 7)). Details: binding of HLA-class I restricted peptides to HLA-A*02:01, UV-ligand exchange.
Excerpt: Candidate peptides for T cell based therapies according to the present invention were further tested for their MHC binding capacity (affinity). The individual peptide-MHC complexes were produced by UV-ligand exchange, where a UV-sensitive peptide is cleaved upon UV-irradiation, and exchanged with the peptide of interest as analyzed. Only peptide candidates that can effectively bind and stabilize the peptide-receptive MHC molecules prevent dissociation of the MHC complexes. To determine the yield of the exchange reaction, an ELISA was performed based on the detection of the light chain (β2 m) of stabilized MHC complexes. The assay was performed as generally described in Rodenko et al. (Rodenko et al., 2006).
96 well MAXISorp plates (NUNC) were coated over night with 2 ug/ml streptavidin in PBS at room temperature, washed 4× and blocked for 1 h at 37° C. in 2% BSA containing blocking buffer. Refolded HLA-A*02:01/MLA-001 monomers served as standards, covering the range of 15-500 ng/ml. Peptide-MHC monomers of the UV-exchange reaction were diluted 100 fold in blocking buffer. Samples were incubated for 1 h at 37° C., washed four times, incubated with 2 ug/ml HRP conjugated anti-β2 m for 1 h at 37° C., washed again and detected with TMB solution that is stopped with […]. Absorption was measured at 450 nm. Candidate peptides that show a high exchange yield (preferably higher than 50%, most preferred higher than 75%) are generally preferred for a generation and production of antibodies or fragments thereof, and/or T cell receptors or fragments thereof, as they show sufficient avidity to the MHC molecules and prevent dissociation of the MHC complexes.

Substance | Peptide exchange (MHC class I binding score, peptide exchange yield)
74 (GLAFLPASV; listed as Homo sapiens) [compound 74] | ++ (≥20% = ++)
75 (ALLDGALQL; listed as Homo sapiens) [compound 75] | +++ (≥50% = +++)
76 (FTAEFLEKV; listed as Homo sapiens) [compound 76] | +++ (≥50% = +++)
77 (ALYGNVQQV; listed as Homo sapiens) [compound 77] | +++ (≥50% = +++)
79 (TVLEEIGNRV; listed as Homo sapiens) [compound 79] | ++ (≥20% = ++)
80 (VLTGQVHEL; listed as Homo sapiens) [compound 80] | +++ (≥50% = +++)
81 (ILAEEPIYI; listed as Homo sapiens) [compound 81] | ++ (≥20% = ++)
82 (ILAEEPIYIRV; listed as Homo sapiens) [compound 82] | +++ (≥50% = +++)
83 (GLLENSPHL; listed as Homo sapiens) [compound 83] | ++ (≥20% = ++)
84 (FLLEREQLL; listed as Homo sapiens) [compound 84] | ++++ (≥75% = ++++)
85 (KLLDKPEQFL; listed as Homo sapiens) [compound 85] | ++ (≥20% = ++)
86 (SLFSNIESV; listed as Homo sapiens) [compound 86] | +++ (≥50% = +++)
87 (KLLSLLEEA; listed as Homo sapiens) [compound 87] | +++ (≥50% = +++)
88 (LLLPLELSLA; listed as Homo sapiens) [compound 88] | +++ (≥50% = +++)
89 (SLAETIFIV; listed as Homo sapiens) [compound 89] | +++ (≥50% = +++)
90 (AILNVDEKNQV; listed as Homo sapiens) [compound 90] | ++ (≥20% = ++)
91 (LLPSIFLMV; listed as Homo sapiens) [compound 91] | ++ (≥20% = ++)
92 (RLFEEVLGV; listed as Homo sapiens) [compound 92] | ++++ (≥75% = ++++)
93 (RLYGYFHDA; listed as Homo sapiens) [compound 93] | ++ (≥20% = ++)
94 (YLDEVAFML; listed as Homo sapiens) [compound 94] | +++ (≥50% = +++)
95 (KLIDEDEPLFL; listed as Homo sapiens) [compound 95] | +++ (≥50% = +++)
96 (ALDTTRHEL; listed as Homo sapiens) [compound 96] | ++ (≥20% = ++)
97 (KLFEKSTGL; listed as Homo sapiens) [compound 97] | +++ (≥50% = +++)
98 (FVQEKIPEL; listed as Homo sapiens) [compound 98] | +++ (≥50% = +++)
99 (TLFGIQLTEA; listed as Homo sapiens) [compound 99] | +++ (≥50% = +++)
100 (ALQSFEFRV; listed as Homo sapiens) [compound 100] | +++ (≥50% = +++)
101 (SLLEVNEASSV; listed as Homo sapiens) [compound 101] | +++ (≥50% = +++)
102 (GLYPVTLVGV; listed as Homo sapiens) [compound 102] | +++ (≥50% = +++)
103 (YLADTVQKL; listed as Homo sapiens) [compound 103] | ++ (≥20% = ++)

Further lines, results first:

Peptide exchange (MHC class I binding score, peptide exchange yield) | Substance
++ (≥20% = ++) | 105 (AMLASQTEA; listed as Homo sapiens) [compound 105]
++ (≥20% = ++) | 106 (VLLGSVVIFA; listed as Homo sapiens) [compound 106]
++ (≥20% = ++) | 107 (RVLPGQAVTGV; listed as Homo sapiens) [compound 107]
+++ (≥50% = +++) | 108 (FIANLPPELKA; listed as Homo sapiens) [compound 108]
+++ (≥50% = +++) | 109 (ILGSFELQL; listed as Homo sapiens) [compound 109]
++ (≥20% = ++) | 110 (QIQGQVSEV; listed as Homo sapiens) [compound 110]
+++ (≥50% = +++) | 111 (AQLEGKLVSI; listed as Homo sapiens) [compound 111]
+++ (≥50% = +++) | 112 (ILAQDVAQL; listed as Homo sapiens) [compound 112]
++ (≥20% = ++) | 113 (FLFLKEVKV; listed as Homo sapiens) [compound 113]
++ (≥20% = ++) | 114 (LLFPSDVQTL; listed as Homo sapiens) [compound 114]
++ (≥20% = ++) | 115 (ILHGEVNKV; listed as Homo sapiens) [compound 115]
++ (≥20% = ++) | 116 (ALLSSVAEA; listed as Homo sapiens) [compound 116]
++ (≥20% = ++) | 117 (TLLEGISRA; listed as Homo sapiens) [compound 117]
++ (≥20% = ++) | 119 (SLIEESEEL; listed as Homo sapiens) [compound 119]
++ (≥20% = ++) | 121 (ALYVQAPTV; listed as Homo sapiens) [compound 121]
+++ (≥50% = +++) | 122 (SIIDTELKV; listed as Homo sapiens) [compound 122]
+ (≥10% = +) | 123 (QTAPEEAFIKL; listed as Homo sapiens) [compound 123]

Peptide exchange (MHC class I binding score, peptide exchange yield) | Substance
++ (≥20% = ++) | 124 (ALLLRLFTI; listed as Homo sapiens) [compound 124]
+++ (≥50% = +++) | 125 (AALEVLAEV; listed as Homo sapiens) [compound 125]
+++ (≥50% = +++) | 126 (QLREAFEQL; listed as Homo sapiens) [compound 126]
++ (≥20% = ++) | 128 (SILTNISEV; listed as Homo sapiens) [compound 128]
++ (≥20% = ++) | 129 (KMASKVTQV; listed as Homo sapiens) [compound 129]
+++ (≥50% = +++) | 130 (QLYGSAITL; listed as Homo sapiens) [compound 130]
+++ (≥50% = +++) | 131 (SLYPHFTLL; listed as Homo sapiens) [compound 131]
+++ (≥50% = +++) | 132 (ALLNNVIEV; listed as Homo sapiens) [compound 132]
++ (≥20% = ++) | 133 (FLDGRPLTL; listed as Homo sapiens) [compound 133]
++ (≥20% = ++) | 134 (SLYKSFLQL; listed as Homo sapiens) [compound 134]
+++ (≥50% = +++) | 136 (LLWDAPAKC; listed as Homo sapiens) [compound 136]
++ (≥20% = ++) | 137 (KLIYKDLVSV; listed as Homo sapiens) [compound 137]
++ (≥20% = ++) | 138 (GIINKLVTV; listed as Homo sapiens) [compound 138]
+++ (≥50% = +++) | 139 (IILENIQSL; listed as Homo sapiens) [compound 139]
+++ (≥50% = +++) | 140 (FLDSQITTV; listed as Homo sapiens) [compound 140]
++ (≥20% = ++) | 141 (NIDINNNEL; listed as Homo sapiens) [compound 141]
